Measured values from patent publication US8962819B2, “Anti-C5 alpha antibodies” (Adienne S.A., priority 2002, dated 2015).
“Also recorded” adds a separate entry of the source.

Assays:
C5 [1] = molecular target: T1, C5 (Homo sapiens, UniProt P01031); assay: Hemolytic assay, alternative pathway (rabbit erythrocytes); type: biochemical; conditions: 600 ng scFv, increasing amounts of C5, FIG. 4B
T1 construct: C5 alpha and beta subunits were obtained by incubating 50 μg of C5; purchased Quidel
Procedure: (§1) Values from spectrophotometric reading performed at 412 nm to measure inhibition of lysis of sheep erythrocytes coated with EAC1-3b, through the classical complement activation pathway (A Panel); or of rabbit erythrocytes in order to measure the alternative pathway of complement activation (B Panel). Increasing amounts of C5 were mixed with 600 ng of the scFv antibody of the invention with an unrelated scFv, or with GVBS in which the scFv of the invention were solubilised, as described in example 9. After incubation with serum lacking in C5, obtained from a patient with selective deficiency of this complement component, the percentage of hemolysis was measured compared to the 100% value obtained by lysing erythrocytes in an equal volume of distilled H2O and a blank obtained by resuspending eythrocytes in GBVS. Having assessed the characteristics of the inhibition of the classical activation pathway of factor C5 by the TS-A12/22 antibody, it was then verified whether there was inhibition also of the alternative pathway of C5 activation, and at which level. […] After incubation for 30 minutes at 37° C., the percentage of erythrocyte lysis was measured by comparison to a 100% value obtained by lysing erythrocytes with an equal volume of distilled of H2O and to a blank consisting of erythrocytes re-suspended in GBVS. […]

C5 [2] = molecular target: T1, C5; assay: Hemolytic assay, classical pathway (EAC1-3b sheep erythrocytes); type: biochemical; conditions: 600 ng scFv, increasing amounts of C5, FIG. 4A
Procedure: as §1

rat joint = assay: Rat model of antigen-induced (BSA) arthritis, intra-articular scFv; type: in vivo
Procedure: Polymorphonuclear Leukocytes (PMN), isolated from intra-articular wash out of rats with arthritis induced by instillation of BSA (mBSA), were incubated with antibody TS-A12/22 or with an unrelated antibody, as described in example 10.
Saline solution: control without induced arthritis; mBSA: BSA-induced arthritis, untreated; unrelated: BSA-induced arthritis, treated with unrelated scFv antibody; Ts-a12/22: BSA-induced arthritis, treated with the antibody of the invention.
Histological sections of joints from rats treated with intra-articular injection of saline (A), BSA (B), BSA with TS-A12/22 (C) and BSA with the unrelated antibody (D) were analysed by immunofluorescence for the presence of complement components C3 and C9, as described in example 10.
In order to test the effect of the TS-A12/22 antibody in vivo, the influx of PMN was measured in the rat joint injected with BSA, BSA and TS-A12/22 or BSA and unrelated antibody. […] Moreover the deposition of the C3 and C9 complement components was checked on a histological section of the joint of the back paw of treated rats, by immunofluorescence with specific antisera and fluorescein-conjugated secondary antibody (FIG. 7). […] It was thus confirmed that the TS-A12/22 antibody inhibits the complement cascade at a step intermediate between C3 and C9 and therefore at the level of the conversion of C5 to C5a+C5b.

T1 sequence (P01031 678-1676 limits assumed): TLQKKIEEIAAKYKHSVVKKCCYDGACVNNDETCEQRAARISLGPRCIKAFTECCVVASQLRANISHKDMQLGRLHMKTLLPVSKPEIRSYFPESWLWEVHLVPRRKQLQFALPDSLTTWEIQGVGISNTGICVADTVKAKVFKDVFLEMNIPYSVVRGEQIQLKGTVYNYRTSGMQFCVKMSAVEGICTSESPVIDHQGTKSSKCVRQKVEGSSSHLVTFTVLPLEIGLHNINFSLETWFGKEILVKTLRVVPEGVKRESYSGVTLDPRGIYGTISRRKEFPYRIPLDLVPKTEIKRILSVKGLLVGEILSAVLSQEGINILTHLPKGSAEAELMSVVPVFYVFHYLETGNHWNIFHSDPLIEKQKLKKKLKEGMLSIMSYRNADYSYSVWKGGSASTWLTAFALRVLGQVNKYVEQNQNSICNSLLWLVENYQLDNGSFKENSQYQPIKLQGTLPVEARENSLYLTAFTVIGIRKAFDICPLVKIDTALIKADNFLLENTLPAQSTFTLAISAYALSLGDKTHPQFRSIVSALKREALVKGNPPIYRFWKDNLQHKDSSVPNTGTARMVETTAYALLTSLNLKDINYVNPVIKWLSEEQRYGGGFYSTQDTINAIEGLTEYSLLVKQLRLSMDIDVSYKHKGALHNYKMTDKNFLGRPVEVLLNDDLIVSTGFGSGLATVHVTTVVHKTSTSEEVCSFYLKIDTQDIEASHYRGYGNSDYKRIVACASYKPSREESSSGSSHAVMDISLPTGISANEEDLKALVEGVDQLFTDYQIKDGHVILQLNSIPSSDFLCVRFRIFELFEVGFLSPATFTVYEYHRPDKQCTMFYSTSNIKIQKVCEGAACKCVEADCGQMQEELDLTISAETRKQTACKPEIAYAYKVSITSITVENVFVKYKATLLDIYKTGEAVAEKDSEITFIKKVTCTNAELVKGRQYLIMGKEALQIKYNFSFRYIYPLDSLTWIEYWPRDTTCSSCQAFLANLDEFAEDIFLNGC
T1 sequence (P01031 19-673 partner limits assumed): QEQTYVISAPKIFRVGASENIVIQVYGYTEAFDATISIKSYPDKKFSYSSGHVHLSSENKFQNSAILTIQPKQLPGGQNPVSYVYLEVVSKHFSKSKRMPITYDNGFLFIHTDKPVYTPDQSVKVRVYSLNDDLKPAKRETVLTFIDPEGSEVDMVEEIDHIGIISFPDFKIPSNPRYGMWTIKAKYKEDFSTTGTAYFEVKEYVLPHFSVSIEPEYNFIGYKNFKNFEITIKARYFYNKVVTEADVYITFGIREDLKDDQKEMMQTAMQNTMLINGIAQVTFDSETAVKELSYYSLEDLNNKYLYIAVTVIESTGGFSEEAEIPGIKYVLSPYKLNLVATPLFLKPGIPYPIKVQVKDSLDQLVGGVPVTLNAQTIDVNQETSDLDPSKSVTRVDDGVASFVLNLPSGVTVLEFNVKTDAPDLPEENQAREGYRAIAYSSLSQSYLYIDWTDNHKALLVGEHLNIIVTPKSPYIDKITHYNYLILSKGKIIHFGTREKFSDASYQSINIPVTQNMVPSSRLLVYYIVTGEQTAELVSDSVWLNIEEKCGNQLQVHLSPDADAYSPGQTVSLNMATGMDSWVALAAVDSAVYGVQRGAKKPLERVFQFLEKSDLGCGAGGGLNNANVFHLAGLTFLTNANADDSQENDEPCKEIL

B1: TS-A12/22: anti-C5 scFv obtained from TS-A12 by VL chain shuffling; VH3/V-48 and Vλ3/V2-14; amino acid sequence SEQ ID NO:6 (protein, listed as Homo sapiens)
scFv: DIRMTQSPDSLAVSLGERATINCKSSQSVLYSSNNKNYLAWYQQKPGQPPKLLIYWASTRESGVPDRFSGSGSGTDFTLTISSLQAEDVAVYYCQQYYSTPQLTFGGRTKVDIKSGGSTITSYNVYYTKLSSSGTQVQLQQSEGGVVQPGRSLRLSCAASGFTFSSYGMNWVRQAPGKGLEWVSYISSSSSTIYYADSVKGRFTISRDNSKNTLYLQMNSLRAEDTAVYYCARGPGMDVWGQGTTVTVSS
B1 was tested, and the “inhibition of lysis of rabbit erythrocytes through the alternative pathway” value (C5 [1]) was “inhibits”, the “inhibition of erythrocyte lysis through the classical pathway” value (C5 [2]) was “inhibits” and the “deposition of C3 in the joint (immunofluorescence)” value (rat joint; FIG. 7) was “remained unchanged; also recorded: does not affect”. For the same molecule, the “deposition of C9 in the joint (immunofluorescence)” value (rat joint; FIG. 7) was “strongly inhibited; also recorded: significantly reduces” and the “number of PMN in the joint wash out liquid” value (rat joint; versus BSA or BSA and unrelated antibody, FIG. 6) was “significantly reduced; also recorded: drastically reduced”.
